The target of assay [1] is β2-RF (full-length human BK β2 subunit with C-terminal mCherry-FLAG) (human) (UniProt Q9Y691). Nature of the assay: pull-down + SEC; TR1 (1:1:1); three-step affinity purification: streptactin XT (Slo1), then anti-FLAG M2 resin (β2) and anti-ρ1D4 resin (β3) one after the other, in either order; eluates, input and flow-through read by dual-colour FSEC.
The target of assay [2] is hSlo1EM-TS (modified human Slo1 BK α subunit with a C-terminal twin-strep tag) (human) (UniProt Q12791). Described as above.
Sequence of hSlo1EM-TS (modified human Slo1 BK α subunit with a C-terminal twin-strep tag) (human) (Q12791 whole entry): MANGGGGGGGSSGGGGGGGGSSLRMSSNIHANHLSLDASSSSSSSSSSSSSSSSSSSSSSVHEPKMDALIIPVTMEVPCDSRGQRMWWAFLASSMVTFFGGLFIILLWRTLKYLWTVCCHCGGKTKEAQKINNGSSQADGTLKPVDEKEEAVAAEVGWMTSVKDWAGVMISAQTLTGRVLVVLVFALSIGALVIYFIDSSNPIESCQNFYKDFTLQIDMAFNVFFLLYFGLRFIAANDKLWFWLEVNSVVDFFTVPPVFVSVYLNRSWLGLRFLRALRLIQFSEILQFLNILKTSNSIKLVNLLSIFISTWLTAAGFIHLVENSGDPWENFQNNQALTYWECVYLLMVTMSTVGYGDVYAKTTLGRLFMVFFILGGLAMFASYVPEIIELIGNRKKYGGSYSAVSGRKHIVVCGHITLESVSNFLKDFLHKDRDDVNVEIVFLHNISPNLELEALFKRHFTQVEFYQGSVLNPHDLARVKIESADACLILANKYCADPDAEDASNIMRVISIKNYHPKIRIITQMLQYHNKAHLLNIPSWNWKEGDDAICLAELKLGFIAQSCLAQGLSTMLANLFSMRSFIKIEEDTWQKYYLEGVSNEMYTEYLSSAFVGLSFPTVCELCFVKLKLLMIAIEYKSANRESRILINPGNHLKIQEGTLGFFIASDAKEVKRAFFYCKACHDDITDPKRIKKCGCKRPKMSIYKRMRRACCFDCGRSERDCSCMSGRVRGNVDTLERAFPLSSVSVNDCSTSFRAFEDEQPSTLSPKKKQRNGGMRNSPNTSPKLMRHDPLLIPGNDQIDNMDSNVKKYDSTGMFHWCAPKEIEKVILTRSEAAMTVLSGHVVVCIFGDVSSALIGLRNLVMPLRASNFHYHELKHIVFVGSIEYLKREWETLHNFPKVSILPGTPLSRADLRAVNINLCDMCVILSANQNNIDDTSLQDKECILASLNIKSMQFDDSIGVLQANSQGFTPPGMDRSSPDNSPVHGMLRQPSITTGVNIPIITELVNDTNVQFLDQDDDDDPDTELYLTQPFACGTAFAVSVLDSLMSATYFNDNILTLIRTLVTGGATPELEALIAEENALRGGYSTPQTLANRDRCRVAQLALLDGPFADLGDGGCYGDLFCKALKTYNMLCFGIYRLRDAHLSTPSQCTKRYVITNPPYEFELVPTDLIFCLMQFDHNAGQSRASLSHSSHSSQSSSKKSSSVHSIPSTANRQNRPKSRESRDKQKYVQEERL
Assay [3] has as its target β2-RF (full-length human BK β2 subunit with C-terminal mCherry-FLAG) (human) (UniProt Q9Y691). Description: pull-down + SEC; as a3 but plasmid weight ratio 1:0.2:1.8 (TR2).
In assay [4] the target is hSlo1EM-TS (modified human Slo1 BK α subunit with a C-terminal twin-strep tag) (human) (UniProt Q12791). The description is as above.
In assay [5] the target is β2-RF (full-length human BK β2 subunit with C-terminal mCherry-FLAG) (human) (UniProt Q9Y691). Description: pull-down + SEC; plasmid weight ratio 1:0.2:1.8 (TR2).

Sequence of β2-RF (full-length human BK β2 subunit with C-terminal mCherry-FLAG) (human) (Q9Y691 whole entry): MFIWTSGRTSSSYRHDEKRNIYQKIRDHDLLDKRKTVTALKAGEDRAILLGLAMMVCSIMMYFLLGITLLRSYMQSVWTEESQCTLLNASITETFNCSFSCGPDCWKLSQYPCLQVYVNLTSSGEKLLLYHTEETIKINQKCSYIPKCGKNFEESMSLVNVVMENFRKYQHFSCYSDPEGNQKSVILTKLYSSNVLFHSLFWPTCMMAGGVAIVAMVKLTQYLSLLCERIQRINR
Sequence of β3-Gρ (full-length human BK β3a subunit with C-terminal eGFP-ρ1D4) (natural protein) (Q9NPA1 whole entry): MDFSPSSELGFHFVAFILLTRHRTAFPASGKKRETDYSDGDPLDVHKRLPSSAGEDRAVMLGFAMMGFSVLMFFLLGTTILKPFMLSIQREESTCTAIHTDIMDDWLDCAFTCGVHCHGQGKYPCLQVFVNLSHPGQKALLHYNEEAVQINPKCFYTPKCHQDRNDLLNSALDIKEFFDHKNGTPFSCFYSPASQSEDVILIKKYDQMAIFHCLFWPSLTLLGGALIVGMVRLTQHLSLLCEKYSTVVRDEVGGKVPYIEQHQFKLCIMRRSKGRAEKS

As to “β3-Gρ (full-length human BK β3a subunit with C-terminal eGFP-ρ1D4) (natural protein)”, the molar ratio of β2-RF to β3-Gρ in the triply purified complex in assay [1] came to 2.33 mol/mol; in assay [5] it was 0.89 mol/mol. For the same substance, the percent of total Slo1–β2 complexes that are ternary (hold β3 too) in assay [1] was 14%; in assay [3], 58%. In addition, the stoichiometry N (β3 per 4 Slo1) in assay [2] amounted to 1.2; in assay [4], 2.1.

The values are drawn from article PMC12646051.
